T1: denatured human collagen type III (UniProt P02461 154-1221)
T1 chain: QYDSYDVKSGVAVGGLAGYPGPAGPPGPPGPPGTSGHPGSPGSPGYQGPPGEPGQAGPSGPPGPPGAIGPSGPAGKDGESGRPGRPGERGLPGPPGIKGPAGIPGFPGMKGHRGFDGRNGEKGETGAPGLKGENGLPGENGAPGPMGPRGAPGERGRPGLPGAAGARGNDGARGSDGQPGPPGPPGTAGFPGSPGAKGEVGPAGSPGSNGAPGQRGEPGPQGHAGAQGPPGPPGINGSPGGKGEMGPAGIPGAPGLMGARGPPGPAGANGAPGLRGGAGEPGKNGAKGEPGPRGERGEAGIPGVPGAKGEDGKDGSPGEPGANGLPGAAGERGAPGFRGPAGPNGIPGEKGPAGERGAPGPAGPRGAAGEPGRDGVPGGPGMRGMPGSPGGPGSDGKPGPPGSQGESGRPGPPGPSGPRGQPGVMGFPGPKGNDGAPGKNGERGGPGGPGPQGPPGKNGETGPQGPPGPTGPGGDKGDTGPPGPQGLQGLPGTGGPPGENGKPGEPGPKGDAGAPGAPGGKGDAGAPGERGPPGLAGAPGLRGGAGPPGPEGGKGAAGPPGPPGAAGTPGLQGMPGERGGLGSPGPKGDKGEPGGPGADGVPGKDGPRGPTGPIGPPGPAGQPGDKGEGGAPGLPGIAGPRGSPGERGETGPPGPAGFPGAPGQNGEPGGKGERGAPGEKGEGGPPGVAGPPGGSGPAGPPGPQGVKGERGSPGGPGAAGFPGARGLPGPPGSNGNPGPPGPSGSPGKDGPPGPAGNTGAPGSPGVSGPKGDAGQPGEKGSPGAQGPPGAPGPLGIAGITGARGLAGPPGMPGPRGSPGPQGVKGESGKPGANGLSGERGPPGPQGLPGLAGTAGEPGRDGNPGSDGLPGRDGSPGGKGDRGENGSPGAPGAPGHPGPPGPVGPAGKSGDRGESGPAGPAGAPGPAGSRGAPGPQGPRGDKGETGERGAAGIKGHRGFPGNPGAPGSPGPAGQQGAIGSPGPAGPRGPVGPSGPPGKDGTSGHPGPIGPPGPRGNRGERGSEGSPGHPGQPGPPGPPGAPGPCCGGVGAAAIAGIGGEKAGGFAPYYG

B1: P27962716 (antibody)
chain 1: not shown
chain 2: DIVMTQTPLSLPVTPGEPASISCRSSQSIVSSWGNTYLEWYLQKPGQSPQLLIYKVSNRFSGVPDRFSGSGSGTDFTLKISRVEAEDVGVYYCFQGSHVPWTFGQGTKVEIKRTVAAPSVFIFPPSDEQLKSGTASVVCLLNNFYPREAKVQWKVDNALQSGNSQESVTEQDSKDSTYSLSSTLTLSKADYEKHKVYACEVTHQGLSSPVTKSFNRGEC
B2: P27152714 (antibody, V domains shown)
VH: QVTLKESGPALVKPTQTLTLTCTFSGFSLSTPGMGVWWIRQPPGKALEWLADIWWDDNKYTNPSLKSRLTISKDTSKNQVVLTMTNMDPVDTATYYCARRANYGNPYYAQDYWGQGTTVTVSS
VL: DIVMTQTPLSLPVTPGEPASISCRSSQSIVHSQGNTYLEWYLQKPGQSPQLLIYKVSNRFSGVPDRFSGSGSGTDFTLKISRVEAEDVGVYYCFQGSHVPWTFGQGTKVEIKR
B3: P27122713 (antibody)
heavy: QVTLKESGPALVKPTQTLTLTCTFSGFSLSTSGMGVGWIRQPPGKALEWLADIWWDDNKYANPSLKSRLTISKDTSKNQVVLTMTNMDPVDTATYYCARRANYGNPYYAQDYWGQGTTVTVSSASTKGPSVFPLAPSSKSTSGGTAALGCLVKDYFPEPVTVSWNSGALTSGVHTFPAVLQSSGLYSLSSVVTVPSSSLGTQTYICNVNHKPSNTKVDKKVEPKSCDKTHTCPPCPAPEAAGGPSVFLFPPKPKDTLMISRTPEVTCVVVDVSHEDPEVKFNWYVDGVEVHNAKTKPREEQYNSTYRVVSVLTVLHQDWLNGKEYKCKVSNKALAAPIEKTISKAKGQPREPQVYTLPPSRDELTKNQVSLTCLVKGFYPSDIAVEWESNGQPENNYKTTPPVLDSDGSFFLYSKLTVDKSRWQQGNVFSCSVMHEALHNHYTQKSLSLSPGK
light: B1 chain 2 with S31H, W33N
B4: P27152716 (antibody)
heavy: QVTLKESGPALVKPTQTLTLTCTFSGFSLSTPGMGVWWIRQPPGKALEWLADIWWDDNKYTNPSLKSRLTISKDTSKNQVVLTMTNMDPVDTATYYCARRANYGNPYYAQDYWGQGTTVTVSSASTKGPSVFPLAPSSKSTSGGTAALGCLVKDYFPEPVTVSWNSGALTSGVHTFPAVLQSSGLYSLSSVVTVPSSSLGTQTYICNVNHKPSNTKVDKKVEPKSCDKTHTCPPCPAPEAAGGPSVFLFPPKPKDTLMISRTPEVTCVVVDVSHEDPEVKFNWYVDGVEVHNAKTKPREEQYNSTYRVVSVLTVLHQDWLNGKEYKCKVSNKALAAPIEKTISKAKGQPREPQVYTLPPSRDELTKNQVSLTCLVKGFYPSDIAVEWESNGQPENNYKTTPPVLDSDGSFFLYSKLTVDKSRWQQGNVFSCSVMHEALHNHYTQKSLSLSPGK
light: B1 chain 2
B5: P27152798 (antibody)
heavy: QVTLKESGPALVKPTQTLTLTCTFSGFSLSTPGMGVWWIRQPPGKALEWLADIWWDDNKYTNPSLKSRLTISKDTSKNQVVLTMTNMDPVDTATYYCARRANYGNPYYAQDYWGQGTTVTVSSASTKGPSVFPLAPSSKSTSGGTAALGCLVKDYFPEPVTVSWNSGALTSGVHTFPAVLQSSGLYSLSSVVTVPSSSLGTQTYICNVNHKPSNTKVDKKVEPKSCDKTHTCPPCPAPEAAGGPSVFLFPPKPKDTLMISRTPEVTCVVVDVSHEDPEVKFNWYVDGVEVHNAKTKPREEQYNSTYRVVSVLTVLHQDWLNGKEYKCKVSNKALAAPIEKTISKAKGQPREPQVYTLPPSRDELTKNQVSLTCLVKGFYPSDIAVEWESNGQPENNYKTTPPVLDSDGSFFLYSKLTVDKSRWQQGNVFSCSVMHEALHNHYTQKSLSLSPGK
light: B1 chain 2 with S31H, W33N, G34A
B6: P27122716 (antibody)
chain 1: not shown
chain 2: B1 chain 2
B7: P27122714 (antibody)
chain 1: not shown
chain 2: B1 chain 2 with S31H, W33Q
B8: P27652716 (antibody, V domains shown)
VH: B2 VH with K45E, A46G
VL: B2 VL with H31S, Q33W
B9: P27592716 (antibody, V domains shown)
VH: EVQLVESGGGLVQPGGSLRLSCAASGFSLSTPGMGVWWIRQAPGKGLEWLADIWWDDNKYTNPSLKSRLTISRDNAKNSLYLQMNSLRAEDTAVYYCARRANYGNPYYAQDYWGQGTTVTVSS
VL: B2 VL with H31S, Q33W
B10: P27642716 (antibody, V domains shown)
VH: B2 VH with A46G
VL: B2 VL with H31S, Q33W
B11: P27612716 (antibody, V domains shown)
VH: B9 VH with R73K
VL: B2 VL with H31S, Q33W
B12: P27582716 (antibody, V domains shown)
VH: B9 VH with L50V
VL: B2 VL with H31S, Q33W
B13: P27602716 (antibody, V domains shown)
VH: B9 VH with I39V, R73K
VL: B2 VL with H31S, Q33W
B14: P27662716 (antibody, V domains shown)
VH: B2 VH with P43S, K45E, A46G
VL: B2 VL with H31S, Q33W
B15: P27632716 (antibody, V domains shown)
VH: B2 VH with K45E
VL: B2 VL with H31S, Q33W

Substitutions are numbered along the chain they refer to.

The target in the first experiment is T1, denatured human collagen type III. The experiment can be described thus: ELISA.
With B1, the EC50 was determined as 3.94 nM.

The target in a further experiment is T2, denatured human collagen type V (UniProt P20908 38-1605). The experiment in a line: ELISA.
As to B1, a half-maximal response (EC50) required 3.31 nM.

In the next experiment the target is T3, denatured human collagen type IV (UniProt P02462 173-1669; P08572 184-1712). The experiment can be described thus: ELISA.
Molecule B1 registered a 50% effective concentration (EC50) of 18.6 nM.

Another experiment concerns the target T4, denatured human collagen I (UniProt P02452 162-1218; P08123 80-1119). The experiment can be described thus: ELISA.
Molecule B2 showed an EC50 of 18.5 nM.

In turn, B3 registered an EC50 of 59.7 nM.

The molecule B4 gave a 50% effective concentration (EC50) of 2.12 nM.

The molecule B5 displayed an EC50 of 76.3 nM.

On to B6, for which the concentration for a half-maximal effect (EC50) was 19 nM.

On to B7, for which the EC50 is 80.8 nM.

The target of the next experiment is T4, denatured human collagen I. The experiment can be described thus: ELISA. The source holds these as a separate data set.
As to B8, the 50% effective concentration (EC50) was 11.9 nM. That is a double-digit nanomolar value.

On to B9, for which the EC50 came out at 2.44 nM.

Consider B10, for which the EC50 was 2.39 nM.

For the molecule B11, it took 10.9 nM to reach a half-maximal effect (EC50).

For the molecule B12, the EC50 came out at 9.38 nM.

With B13, the concentration for a half-maximal effect (EC50) stood at 21.1 nM.

B14 came in with an EC50 of 9.81 nM.

The molecule B15 registered an EC50 of 3.04 nM.

For the next experiment, the target named is T3, denatured human collagen type IV. The experiment can be described thus: ELISA. This is another data set of the same source.
The molecule B2 had an EC50 of 13 nM.

For the molecule B3, the 50% effective concentration (EC50) is 10.4 nM.

As for B4, the concentration for a half-maximal effect (EC50) amounted to 1.37 nM.

For B6, the EC50 came out at 125 nM.

Take B7: the EC50 came out at 33.9 nM.

A further experiment shares this target. The experiment in a line: ELISA. The source holds these as a separate data set.
Molecule B8 returned an EC50 of 9.91 nM. This counts as single-digit nanomolar.

Regarding B9, the midpoint of the response, the EC50, lay at 1.86 nM.

With B10, the EC50 was found to be 1.69 nM.

Turning to B11, the half-maximal effective concentration (EC50) came out at 6.13 nM.

Regarding B12, the concentration for a half-maximal effect (EC50) amounted to 3.83 nM.

As to B13, it took 11.9 nM to reach a half-maximal effect (EC50).

In turn, B14 yielded a concentration for a half-maximal effect (EC50) of 9.77 nM.

For the molecule B15, a half-maximal effect (EC50) was put at 5.05 nM. Compared with the last molecule, the EC50 is about 1.9-fold lower.

B5 had a concentration giving a half-maximal response (EC50) of 9.97 nM.

The next experiment addresses denatured mouse collagen I (mouse, UniProt P11087 152-1207; Q01149 86-1125). The experiment can be described thus: ELISA.
B4 registered an EC50 of 10.2 nM.

The target in another experiment is T1, denatured human collagen type III. The experiment in a line: ELISA. This is another data set of the same source.
B3 had a half-maximal effective concentration (EC50) of 32.9 nM.

B4 yielded an EC50 of 9.63 nM.

Molecule B5 yielded a 50% effective concentration (EC50) of 59.6 nM.

In another experiment the target is T2, denatured human collagen type V. The experiment can be described thus: ELISA. This is another data set of the same source.
B3 displayed an EC50 of approximately 259 nM.

Regarding B4, the midpoint of the response, the EC50, lay at 15.2 nM.

In turn, B5 had an EC50 of 86.2 nM.

The target in another experiment is denatured mouse collagen IV (mouse, UniProt P02463 28-1669; P08122 26-1707). The experiment can be described thus: ELISA.
Sequence of denatured mouse collagen IV (P02463 28-1669, chain 1 of 2): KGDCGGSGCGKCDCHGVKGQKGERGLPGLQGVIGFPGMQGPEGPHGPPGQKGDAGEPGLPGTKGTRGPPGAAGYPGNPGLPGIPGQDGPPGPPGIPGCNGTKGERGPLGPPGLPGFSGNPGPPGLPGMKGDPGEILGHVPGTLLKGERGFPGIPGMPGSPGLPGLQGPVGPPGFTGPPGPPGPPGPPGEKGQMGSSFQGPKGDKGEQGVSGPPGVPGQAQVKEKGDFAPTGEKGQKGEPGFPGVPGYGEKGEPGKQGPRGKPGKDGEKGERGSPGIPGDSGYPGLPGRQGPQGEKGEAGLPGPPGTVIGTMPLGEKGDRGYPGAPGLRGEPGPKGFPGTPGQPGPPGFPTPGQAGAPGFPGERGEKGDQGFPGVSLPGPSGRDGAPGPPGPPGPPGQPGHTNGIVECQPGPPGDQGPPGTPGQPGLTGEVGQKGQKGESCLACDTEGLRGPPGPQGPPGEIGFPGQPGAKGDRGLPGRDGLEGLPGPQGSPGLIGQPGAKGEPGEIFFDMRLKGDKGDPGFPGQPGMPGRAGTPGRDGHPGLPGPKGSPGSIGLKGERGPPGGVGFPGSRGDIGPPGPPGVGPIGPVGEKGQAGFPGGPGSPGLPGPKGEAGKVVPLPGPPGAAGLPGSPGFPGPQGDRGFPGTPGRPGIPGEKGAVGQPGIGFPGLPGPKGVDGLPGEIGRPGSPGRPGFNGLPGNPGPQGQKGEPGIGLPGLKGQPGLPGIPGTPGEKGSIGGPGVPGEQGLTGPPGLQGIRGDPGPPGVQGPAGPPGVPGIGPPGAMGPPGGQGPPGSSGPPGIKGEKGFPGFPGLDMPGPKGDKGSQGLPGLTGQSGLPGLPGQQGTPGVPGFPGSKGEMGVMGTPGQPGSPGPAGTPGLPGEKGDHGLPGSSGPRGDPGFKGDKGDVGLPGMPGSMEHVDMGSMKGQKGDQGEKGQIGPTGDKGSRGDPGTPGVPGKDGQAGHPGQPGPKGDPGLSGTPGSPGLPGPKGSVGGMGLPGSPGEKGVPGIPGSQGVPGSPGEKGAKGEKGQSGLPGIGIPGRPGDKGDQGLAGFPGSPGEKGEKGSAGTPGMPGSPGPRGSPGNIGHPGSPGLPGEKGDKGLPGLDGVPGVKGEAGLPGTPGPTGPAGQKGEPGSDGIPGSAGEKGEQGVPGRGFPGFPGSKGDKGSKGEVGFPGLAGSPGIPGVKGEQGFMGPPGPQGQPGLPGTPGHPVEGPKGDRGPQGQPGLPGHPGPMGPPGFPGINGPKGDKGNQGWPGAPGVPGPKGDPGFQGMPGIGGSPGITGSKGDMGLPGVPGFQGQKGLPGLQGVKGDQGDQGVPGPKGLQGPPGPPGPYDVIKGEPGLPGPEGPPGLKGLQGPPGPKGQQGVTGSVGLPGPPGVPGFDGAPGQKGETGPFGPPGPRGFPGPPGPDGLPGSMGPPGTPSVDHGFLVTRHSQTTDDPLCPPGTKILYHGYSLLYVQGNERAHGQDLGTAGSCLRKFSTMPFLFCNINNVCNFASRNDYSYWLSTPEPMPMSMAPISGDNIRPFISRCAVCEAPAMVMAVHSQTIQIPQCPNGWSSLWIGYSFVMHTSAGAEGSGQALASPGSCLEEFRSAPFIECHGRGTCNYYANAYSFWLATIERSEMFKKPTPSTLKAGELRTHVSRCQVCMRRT
Sequence of denatured mouse collagen IV (P08122 26-1707, chain 2 of 2): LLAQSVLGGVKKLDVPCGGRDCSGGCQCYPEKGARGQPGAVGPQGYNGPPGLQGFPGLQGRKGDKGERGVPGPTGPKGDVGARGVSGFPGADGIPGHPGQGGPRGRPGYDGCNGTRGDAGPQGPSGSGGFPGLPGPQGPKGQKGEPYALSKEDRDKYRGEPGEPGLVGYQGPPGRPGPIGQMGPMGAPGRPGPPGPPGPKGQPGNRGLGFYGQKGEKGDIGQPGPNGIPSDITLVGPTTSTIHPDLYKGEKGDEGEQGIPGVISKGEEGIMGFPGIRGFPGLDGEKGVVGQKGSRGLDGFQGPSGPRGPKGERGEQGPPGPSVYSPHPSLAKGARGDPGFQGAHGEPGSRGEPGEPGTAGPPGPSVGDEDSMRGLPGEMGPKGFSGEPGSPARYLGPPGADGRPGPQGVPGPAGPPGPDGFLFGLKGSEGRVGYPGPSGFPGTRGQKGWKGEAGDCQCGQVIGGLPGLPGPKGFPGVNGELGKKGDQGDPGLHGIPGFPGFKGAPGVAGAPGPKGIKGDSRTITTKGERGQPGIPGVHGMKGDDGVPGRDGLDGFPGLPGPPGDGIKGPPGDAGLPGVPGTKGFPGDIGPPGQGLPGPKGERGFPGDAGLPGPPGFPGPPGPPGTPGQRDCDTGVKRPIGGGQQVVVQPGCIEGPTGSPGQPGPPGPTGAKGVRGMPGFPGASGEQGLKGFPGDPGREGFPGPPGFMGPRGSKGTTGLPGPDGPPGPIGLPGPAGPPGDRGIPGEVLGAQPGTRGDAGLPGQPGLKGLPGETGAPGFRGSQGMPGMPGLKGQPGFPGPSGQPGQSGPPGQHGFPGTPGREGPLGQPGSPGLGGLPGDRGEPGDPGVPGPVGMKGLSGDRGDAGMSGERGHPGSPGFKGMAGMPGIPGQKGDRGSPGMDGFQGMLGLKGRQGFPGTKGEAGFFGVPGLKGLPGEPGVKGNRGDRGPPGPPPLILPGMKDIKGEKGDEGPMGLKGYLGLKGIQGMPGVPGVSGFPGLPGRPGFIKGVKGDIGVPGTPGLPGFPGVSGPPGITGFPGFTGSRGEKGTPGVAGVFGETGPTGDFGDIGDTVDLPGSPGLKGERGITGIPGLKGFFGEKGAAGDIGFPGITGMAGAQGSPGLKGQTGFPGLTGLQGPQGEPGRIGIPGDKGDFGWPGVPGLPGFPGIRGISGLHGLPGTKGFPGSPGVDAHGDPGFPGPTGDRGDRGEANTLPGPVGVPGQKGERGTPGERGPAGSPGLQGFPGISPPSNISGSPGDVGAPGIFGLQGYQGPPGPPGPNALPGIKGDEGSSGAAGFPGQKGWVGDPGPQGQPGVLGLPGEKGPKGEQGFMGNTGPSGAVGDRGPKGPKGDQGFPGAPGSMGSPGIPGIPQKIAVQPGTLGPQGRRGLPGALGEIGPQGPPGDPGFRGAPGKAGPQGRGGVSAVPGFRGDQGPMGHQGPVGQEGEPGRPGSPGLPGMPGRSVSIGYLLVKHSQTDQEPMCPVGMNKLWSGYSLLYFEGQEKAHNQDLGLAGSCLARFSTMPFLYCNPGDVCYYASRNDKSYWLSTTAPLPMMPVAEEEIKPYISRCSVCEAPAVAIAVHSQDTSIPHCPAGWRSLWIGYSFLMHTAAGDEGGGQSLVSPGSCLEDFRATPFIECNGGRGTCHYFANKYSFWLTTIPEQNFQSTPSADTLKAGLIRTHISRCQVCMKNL
Consider B3, for which the EC50 was found to be 487 nM.

The molecule B4 showed an EC50 of 229 nM. This EC50 is about 2.1-fold lower than that of the molecule before.

B5: the response was half-maximal at 197 nM (EC50).
